Measurements taken from patent US20220119489A1, “COMPOSITIONS AND METHODS FOR TREATING MUSCULAR DYSTROPHY AND RELATED DISORDERS” (CHILDREN'S MEDICAL CENTER CORPORATION, priority 2019, published 2022).

T1: CD82 polypeptide (human) (human)
T1 sequence (P27701 whole entry, looked up): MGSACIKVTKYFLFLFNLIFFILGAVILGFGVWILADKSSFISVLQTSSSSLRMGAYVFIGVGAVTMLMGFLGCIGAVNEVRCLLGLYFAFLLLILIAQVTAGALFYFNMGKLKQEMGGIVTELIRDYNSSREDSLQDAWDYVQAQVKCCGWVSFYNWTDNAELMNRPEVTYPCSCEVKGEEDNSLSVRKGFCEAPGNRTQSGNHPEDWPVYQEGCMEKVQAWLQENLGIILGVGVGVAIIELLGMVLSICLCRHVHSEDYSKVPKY


What follows are binders tested against T1, CD82 polypeptide (human) (human) (assay: IP with anti CD82 antibodies, human myotubes, mass spectrometry).

Binder | Total | Unique
Eh domain containing 1 (protein) MFSWVSKDARRKKEPELFQTVAEGLRQLYAQKLLPLEEHYRFHEFHSPALEDADFDNKPMVLLVGQYSTGKTTFIRHLIEQDFPGMRIGPEPTTDSFIAVMHGPTEGVVPGNALVVDPRRPFRKLNAFGNAFLNRFMCAQLPNPVLDSISIIDTPGILSGEKQRISRGYDFAAVLEWFAERVDRIILLFDAHKLDISDEFSEVIKALKNHEDKIRVVLNKADQIETQQLMRVYGALMWSLGKIINTPEVVRVYIGSFWSHPLLIPDNRKLFEAEEQDLFKDIQSLPRNAALRKLNDLIKRARLAKVHAYIISSLKKEMPNVFGKESKKKELVNNLGEIYQKIEREHQISPGDFPSLRKMQELLQTQDFSKFQALKPKLLDTVDDMLANDIARLMVMVRQEESLMPSQVVKGGAFDGTMNGPFGHGYGEGAGEGIDDVEWVVGKDKPTYDEIFYTLSPVNGKITGANAKKEMVKSKLPNTVLGKIWKLADVDKDGLLDDEEFALANHLIKVKLEGHELPADLPPHLVPPSKRRHE | 3 | 3
TGF beta receptor 1 (receptor) LQCFCHLCTKDNFTCVTDGLCFVSVTETTDKVIHNSMCIAEIDLIPRDRPFVCAPSSKTGSVTTTYCCNQDHCNKIELPTTVKSSPGLGPVELAAVIAGPVCFVCISLMLMVYICHNRTVIHHRVPNEEDPSLDRPFISEGTTLKDLIYDMTTSGSGSGLPLLVQRTIARTIVLQESIGKGRFGEVWRGKWRGEEVAVKIFSSREERSWFREAEIYQTVMLRHENILGFIAADNKDNGTWTQLWLVSDYHEHGSLFDYLNRYTVTVEGMIKLALSTASGLAHLHMEIVGTQGKPAIAHRDLKSKNILVKKNGTCCIADLGLAVRHDSATDTIDIAPNHRVGTKRYMAPEVLDDSINMKHFESFKRADIYAMGLVFWEIARRCSIGGIHEDYQLPYYDLVPSDPSVEEMRKVVCEQKLRPNIPNRWQSCEALRVMAKIMRECWYANGAARLTALRIKKTLSQLSQQEGIKM | 3 | 3
Annexin A1 (human) (protein) AMVSEFLKQAWFIENEEQEYVQTVKSSKGGPGSAVSPYPTFNPSSDVAALHKAIMVKGVDEATIIDILTKRNNAQRQQIKAAYLQETGKPLDETLKKALTGHLEEVVLALLKTPAQFDADELRAAMKGLGTDEDTLIEILASRTNKEIRDINRVYREELKRDLAKDITSDTSGDFRNALLSLAKGDRSEDFGVNEDLADSDARALYEAGERRKGTDVNVFNTILTTRSYPQLRRVFQKYTKYSKHDMNKVLDLELKGDIEKCLTAIVKCATSKPAFFAEKLHQAMKGVGTRHKALIRIMVSRSEIDMNDIKAFYQKMYGISLCQAILDETKGDYEKILVALCGGN | 3 | 3
EHD2_HUMAN (protein) MFSWLKRGGARGQQPEAIRTVTSALKELYRTKLLPLEEHYRFGAFHSPALEDADFDGKPMVLVAGQYSTGKTSFIQYLLEQEVPGSRVGPEPTTDCFVAVMHGDTEGTVPGNALVVDPDKPFRKLNPFGNTFLNRFMCAQLPNQVLESISIIDTPGILSGAKQRVSRGYDFPAVLRWFAERVDLIILLFDAHKLEISDEFSEAIGALRGHEDKIRVVLNKADMVETQQLMRVYGALMWALGKVVGTPEVLRVYIGSFWSQPLLVPDNRRLFELEEQDLFRDIQGLPRHAALRKLNDLVKRARLVRVHAYIISYLKKEMPSVFGKENKKKQLILKLPVIFAKIQLEHHISPGDFPDCQKMQELLMAHDFTKFHSLKPKLLEALDEMLTHDIAKLMPLLRQEELESTEVGVQGGAFEGTHMGPFVERGPDEAMEDGEEGSDDEAEWVVTKDKSKYDEIFYNLAPADGKLSGSKAKTWMVGTKLPNSVLGRIWKLSDVDRDGMLDDEEFALASHLIEAKLEGHGLPANLPRRLVPPSKRRHKGSAE | 3 | 3

The remaining lines, values ahead:

Total | Unique | Binder
3 | 3 | PRDX2_HUMAN (enzyme) ASGNARIGKPAPDFKATAVVDGAFKEVKLSDYKGKYVVLFFYPLDFTFVCPTEIIAFSNRAEDFRKLGCEVLGVSVDSQFTHLAWINTPRKEGGLGPLNIPLLADVTRRLSEDYGVLKTDEGIAYRGLFIIDGKGVLRQITVNDLPVGRSVDEALRLVQAFQYTDEHGEVCPAGWKPGSDTIKPNVDDSKEYFSKHN
3 | 3 | EHD4_HUMAN (protein) MFSWMGRQAGGRERAGGADAVQTVTGGLRSLYLRKVLPLEEAYRFHEFHSPALEDADFENKPMILLVGQYSTGKTTFIRYLLEQDFPGMRIGPEPTTDSFIAVMYGETEGSTPGNALVVDPKKPFRKLSRFGNAFLNRFMCSQLPNQVLKSISVIDSPGILSGEKQRISRGYDFCQVLQWFAERVDRIILLFDAHKLDISDEFSEAIKAFRGQDDKIRVVLNKADQVDTQQLMRVYGALMWSLGKVINTPEVLRVYIGSFWAQPLQNTDNRRLFEAEAQDLFRDIQSLPQKAAVRKLNDLIKRARLAKVHAYIISYLKKEMPSVFGKENKKRELISRLPEIYIQLQREYQISAGDFPEVKAMQEQLENYDFTKFHSLKPKLIEAVDNMLSNKISPLMNLISQEETSTPTQLVQGGAFDGTTEGPFNQGYGEGAKEGADEEEWVVAKDKPVYDELFYTLSPINGKISGVNAKKEMVTSKLPNSVLGKIWKLADCDCDGMLDEEEFALAKHLIKIKLDGYELPSSLPPHLVPPSHRKSLPKAD
